Two molecules from doi:10.1101/2024.09.11.612445 (bioRxiv, 2024) can be followed below.

For experiment [1], the target named is T1, recombinant CSTF3 21-549 (human, UniProt Q12996 21-549).
T1 sequence (looked up): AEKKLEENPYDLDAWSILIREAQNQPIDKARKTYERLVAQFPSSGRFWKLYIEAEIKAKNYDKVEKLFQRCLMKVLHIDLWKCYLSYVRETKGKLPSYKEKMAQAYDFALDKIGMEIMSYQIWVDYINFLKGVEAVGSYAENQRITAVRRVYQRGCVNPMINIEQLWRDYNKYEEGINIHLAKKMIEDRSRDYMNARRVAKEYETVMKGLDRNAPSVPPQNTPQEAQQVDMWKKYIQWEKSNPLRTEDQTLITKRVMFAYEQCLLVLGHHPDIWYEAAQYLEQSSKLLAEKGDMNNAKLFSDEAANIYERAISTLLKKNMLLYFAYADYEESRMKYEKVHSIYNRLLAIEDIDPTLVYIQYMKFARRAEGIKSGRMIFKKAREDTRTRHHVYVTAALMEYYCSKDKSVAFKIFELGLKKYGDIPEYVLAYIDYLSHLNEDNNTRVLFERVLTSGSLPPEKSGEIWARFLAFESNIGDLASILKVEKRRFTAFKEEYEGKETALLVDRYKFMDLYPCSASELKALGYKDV
In words: pull-down.

The target of experiment [2] is T1, recombinant CSTF3 21-549. The experiment in a line: ITC. (ITC needs no label: the signal is the heat of the interaction.)

B1: GST-WDR33 431-485 wild-type (domain or fragment, human, UniProt Q9C0J8 431-485, looked up)
chain: DDLEPNSLAVIPGMGIPEQLKLAMEQEQMGKDESNEIEMTIPGLDWGMEEVMQKD
As to B1, the binding result in the experiment with recombinant CSTF3 21-549 [1] is reported as “binds”.

As to SPTVDDEEEMLYGDS (peptide, UniProt Q10570 737-751, looked up) [CPSF1 737-751 wild-type peptide], in the experiment with recombinant CSTF3 21-549 [2], the binding result was “binds”.
